Test results: article PMC8137924, “Structural basis for allosteric regulation of Human Topoisomerase IIα” (Nature Communications, 2021)

Biological target: the molecule itself
Assay: cryo-EM structure; hTopo IIα with 30 bp doubly nicked DNA (1:1, 20 µM), 0.5 mM etoposide, 0.5 mM ADPNP, cross-linked with 1 mM BS3; 20 mM Hepes, 100 mM KAc, 50 mM Na-glutamate, 5 mM MgAc2, 0.5 mM TCEP, pH 7.5, 8 mM CHAPSO; single-particle analysis, State 1 (closed) and State 2 (pre-open)

B1: full-length human Topo IIα (1–1531) (enzyme, UniProt P11388 1-1531, looked up)
chain: MEVSPLQPVNENMQVNKIKKNEDAKKRLSVERIYQKKTQLEHILLRPDTYIGSVELVTQQMWVYDEDVGINYREVTFVPGLYKIFDEILVNAADNKQRDPKMSCIRVTIDPENNLISIWNNGKGIPVVEHKVEKMYVPALIFGQLLTSSNYDDDEKKVTGGRNGYGAKLCNIFSTKFTVETASREYKKMFKQTWMDNMGRAGEMELKPFNGEDYTCITFQPDLSKFKMQSLDKDIVALMVRRAYDIAGSTKDVKVFLNGNKLPVKGFRSYVDMYLKDKLDETGNSLKVIHEQVNHRWEVCLTMSEKGFQQISFVNSIATSKGGRHVDYVADQIVTKLVDVVKKKNKGGVAVKAHQVKNHMWIFVNALIENPTFDSQTKENMTLQPKSFGSTCQLSEKFIKAAIGCGIVESILNWVKFKAQVQLNKKCSAVKHNRIKGIPKLDDANDAGGRNSTECTLILTEGDSAKTLAVSGLGVVGRDKYGVFPLRGKILNVREASHKQIMENAEINNIIKIVGLQYKKNYEDEDSLKTLRYGKIMIMTDQDQDGSHIKGLLINFIHHNWPSLLRHRFLEEFITPIVKVSKNKQEMAFYSLPEFEEWKSSTPNHKKWKVKYYKGLGTSTSKEAKEYFADMKRHRIQFKYSGPEDDAAISLAFSKKQIDDRKEWLTNFMEDRRQRKLLGLPEDYLYGQTTTYLTYNDFINKELILFSNSDNERSIPSMVDGLKPGQRKVLFTCFKRNDKREVKVAQLAGSVAEMSSYHHGEMSLMMTIINLAQNFVGSNNLNLLQPIGQFGTRLHGGKDSASPRYIFTMLSSLARLLFPPKDDHTLKFLYDDNQRVEPEWYIPIIPMVLINGAEGIGTGWSCKIPNFDVREIVNNIRRLMDGEEPLPMLPSYKNFKGTIEELAPNQYVISGEVAILNSTTIEISELPVRTWTQTYKEQVLEPMLNGTEKTPPLITDYREYHTDTTVKFVVKMTEEKLAEAERVGLHKVFKLQTSLTCNSMVLFDHVGCLKKYDTVLDILRDFFELRLKYYGLRKEWLLGMLGAESAKLNNQARFILEKIDGKIIIENKPKKELIKVLIQRGYDSDPVKAWKEAQQKVPDEEENEESDNEKETEKSDSVTDSGPTFNYLLDMPLWYLTKEKKDELCRLRNEKEQELDTLKRKSPSDLWKEDLATFIEELEAVEAKEKQDEQVGLPGKGGKAKGKKTQMAEVLPSPRGQRVIPRITIEMKAEAEKKNKKKIKNENTEGSPQEDGVELEGLKQRLEKKQKREPGTKTKKQTTLAFKPIKKGKKRNPWSDSESDRSSDESNFDVPPRETEPRRAATKTKFTMDLDSDEDFSDFDEKTDDEDFVPSDASPPKTKTSPKLSNKELKPQKSVVSDLEADDVKGSVPLSSSPPATHFPDETEITNPVPKKNVTVKKTAAKSQSSTSTTGAKKRAAPKGTKRDPALNSGVSQKPDPAKTKNRRKRKPSTSDDSDSNFEKIVSKAVTSKKSKGESDDFHMDFDSAVAPRAKSVRAKKPIKYLEESDEDDLF
notes: human DNA topoisomerase IIα (TOP2A gene), full length, residues 1-1531; Homodimer; Tags were removed with P3C (PreScission) protease; also called hTopo IIα; human topoisomerase IIα isoform; source: BHK21 C13-2P cells infected with recombinant MVA-T7 virus, purified (Ni chelating resin, StrepTrap, heparin); not shown: Twin-strep, N-terminal, cleaved; His10, C-terminal, cleaved
binding result: binds
